# Reference: publication PMC8545088
# B1: PorU sortase from P. gingivalis, hexahistidine-tagged (enzyme)
# chain: QRAMGKTADRSLMASGHWVKIRVDASGVYRLTDEQLRANGFSDPSKVGVFGYGGGVLPEDLSRITTDDLPPVPVLRQGNALYFYAVGPVTWFYNPAKTTMEHTVNTYSTHGYYFLSDAAGAPLQMSQYTGGGASAEALIDYYDELMLHEQELYSPKESGRDLYGESFSAVNTRTVKFPLRGNTRSSGELGTVFSYIAKARSAGGGREMSLSANGILIFSDPFSMTSNEVSNSYLAGKKRRLYRSTPMNSLVNELRLDANYSMTGDAVNLDFIEVATQNDLRYDGAPMHIRRFSNLPVLGGESCRFVISEVPESLVVLQANSSLTASLVPVKTVGDKTIEFVAPPKGQDRRTINTFYAVDLSQASAPEILGAVPNQNLHGEEIPDLIIVSTQALLPEADRLATYRREKNGLKVLVVLQEQVFNEFSGGTPDATAYRLFAKMFYDRWKANAPVGETFPMQMLLFGDGAHDNRKVSVAWQKPYLQQTEFLLTFQAVNSTNVNSYVTDDYFGLLDDQPASVNIGWRNYNMAVGRFPVRTPAEARIAVDKTIRYEEDRESGAWRIRACFAADNGDKHATETSRLIDTVKRYAPAIMPVRAFQDVYPHVIENGLHSIPGAKKKMLETLQSGIILLNYAGHGGPAGWSDEHLLTLNDIHNFNYKHMPIWITATCDFANYDSQTTSAGEEVFLHEKSGTPIMFSTTRVVYNTQNEKINGFMLRRMFEKAKDGRYRTMGEIIRSAKQGMLSTVFPDSINQLSFFLMGDPSVRMNLPTHKVQLTAINGQDPEGQYGTIMLKSLERVALKGKVTDEKGTFDETFSGKVFLTVFDGRKKMTALEEEGNDLSLVYYDYPNVMYAGIAEVKDGLFETSFIVPKDVNYSEHEGRINLYAYNESTKAEAMGVDFSIRVQPGIPDEVTEDNTPPEIISCFLNDSTFRSGDEVNPTPLFMAEVFDLNGINITGSGVGHDITLCIDGRADLTYNLNAYFTSSATDAGVGTILFMIPALAEGDHTARLTVWDIFNNAVHHDFSFRVVDGIAPDVADVILFPNPVRESATFRIFHNRPGSDLNVVVEIYDFTGRLVNSLPVKTYSSSYGEPIEIKWDLTSKYGVKIGNGFYLYRCVVNSPGGQTASMAKKMIVVAQ
# Legend:
# [1] = biological target: PorZ from P. gingivalis (P. gingivalis W83); test: other fluorescence titration; microscale fluorescence (initial fluorescence, Monolith NT.115): 20 nM NT-647-labelled PorZ titrated with PorU (3 nM to 100 μM) in PBS, 25°C, without A-LPS; 1:1 binding model
# [2] = biological target: PorZ from P. gingivalis (P. gingivalis W83); test: other fluorescence titration; microscale fluorescence (initial fluorescence, Monolith NT.115): 20 nM NT-647-labelled PorZ with 1 × 10^5 EU/ml A-LPS from W83, titrated with PorU (3 nM to 100 μM) in PBS, 25°C; 1:1 binding model
binder,measurement,setting,value
B1,Kd,[1],3400 nM
same,Kd,[2],700 nM
